1 molecule from US20160068592A1 (SEOUL NATIONAL UNIVERSITY R AND DB FOUNDATION, published 2016) can be followed below.

For experiment [1], the target named is T1, MG4 domain mutant d332-348 Fc fusion protein (human, UniProt P01031 367-469).
T1 construct: not shown: hinge region and CH2-CH3 domain of human IgG1
Nature of the experiment: immunoblot after SDS-PAGE. From the text:
(§1) MG4 domain of the beta chain and five mutants from which the MG4 domain is sequentially removed from N-terminus of the MG4 domain were cloned. The primers were designed to add SfiI restriction sites at both the 5′ and 3′ ends (Table 13). The amplified PCR fragments were digested with SfiI and cloned into modified pCEP4 vector containing the hinge region and CH2-CH3 domain of human IgG1 at the 3′ region of the cloning site. These clones were transfected and Fc fusion proteins were purified as described in Example 5. The purified Fc fusion proteins were subjected to SDS-PAGE, and immunoblotting was performed as described above.

In experiment [2] the target is T2, MG4 domain mutant d332-378 Fc fusion protein (human, UniProt P01031 397-469).
T2 construct: not shown: hinge region and CH2-CH3 domain of human IgG1
Nature of the experiment: immunoblot after SDS-PAGE.
Excerpt: as §1
(Immunoblotting shows a protein as a band on a membrane.)

In experiment [3] the target is T3, MG4 domain mutant d332-396 Fc fusion protein (human, UniProt P01031 415-469).
T3 construct: not shown: hinge region and CH2-CH3 domain of human IgG1
The experiment in a line: immunoblot after SDS-PAGE.
Excerpt: as §1

The target of experiment [4] is T4, beta chain of human C5 protein (human, UniProt P01031 19-673).
T4 construct: Seen as the beta-chain band of C5 on SDS-PAGE under reducing condition; also called C5 beta-chain
Nature of the experiment: immunoblot, SDS-PAGE under reducing condition.

The target of experiment [5] is T5, Fc fusion protein having an MG4 domain (human, UniProt P01031 350-469).
T5 construct: Amplified with MG4_F/MG4_R and cloned by SfiI into modified pCEP4; also called hMG4; MG4 domain of the C5 beta chain as Fc fusion protein; not shown: hinge region and CH2-CH3 domain of human IgG1, 3' of the cloning site
Nature of the experiment: immunoblot of beta-chain domain Fc fusion proteins.

B1: HRA-06-H2-1 (antibody, human IgG2, kappa, V domains shown)
VH: EVQLVESGGGLVQPGGSLRLSCAASGFSFSGRYWIQWVRQAPGKGLEWVASVWPGITGDTNYANWAKGRFTISRDDSKNTLYLQMNSLRAEDTAVYYCAREPVAWGGGLDLWGQGTLVTVSS
VL: DIQMTQSPSSLSASVGDRVTITCQASQSINNQLSWYQQKPGKAPKLLIYYASTLASGVPSRFSGSGSGTDFTLTISSLQPEDFATYYCQGSYYSGGWDYGFGQGTKVEIKR
notes: also called anti-complement C5 antibody HRA-06-H2-1; C5 Antibody (HRA-06-H2-1)
Regarding B1, the binding result is reported as “no binding” in experiment [1]; “no binding” in experiment [2]; “no binding” in experiment [3]; “binds” in experiment [4]; “binds” in experiment [5].
